Assay results published in patent US11733246B2, “Compositions, imaging, and therapeutic methods targeting folate receptor 1 (FOLR1)” (Indi Molecular, Inc., priority 2020, dated 2023).
Like-named read-outs stand apart in the source and are kept apart here. Numbered stars: 1 amine (or outer) side, 2 acyl side, 3 side chain; on linkers, the order of the positions; unused ones are H or OH. Bridge positions count the residues as written; N and C are the ends. Square brackets hold non-standard residues; d marks the D form. Triazole bridges read from a SMILES are 1,4-linked. Peptide text beside a SMILES is read from it. * marks the point of attachment. DOTA = O=C(O)CN1CCN(CC(=O)O)CCN(CC(=O)*)CCN(CC(=O)O)CC1; Pteroyl = Nc1nc2ncc(CNc3ccc(C(=O)*)cc3)nc2c(=O)[nH]1; Butanoyl(4-(4-MePh)) = Cc1ccc(CCCC(=O)*)cc1; Lys(N3) = [N-]=[N+]=NCCCC[C@H](N)C(=O)O; γGlu = O=C(O)[C@H](CCC(=O)[*:2])N[*:1]; AEEEA = NCCOCCOCCOCC(=O)O; Pra = C#CC[C@H](N)C(=O)O

How the values were obtained:
[1] = Plasma protein binding (equilibrium dialysis), human; assay type: in vitro ADME
How it was run: (§1)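 Equilibrium dialysis across 12-14 kDa cellulose membranes; test articles at 2 μM in mouse or human plasma adjusted to pH 7.0-8.0, in triplicate. Dialysed 4 hours at 37° C. with slow shaking; both sides quantified by LC-MS/MS to give fraction bound.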

[2] = Plasma protein binding (equilibrium dialysis), mouse; assay type: in vitro ADME, CD-1 mouse
How it was run: as §1

human recombinant NEP = human recombinant NEP (Homo sapiens, UniProt P08473); assay type: biochemical
How it was run: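 Peptide bearing GFK linker (10 μM) incubated with recombinant human NEP (10, 1, 0.1, 0.01 nM or none) at 37° C. for 1 h. Cleavage tracked by MALDI-MS, cleaved adduct identified by mass, and by HPLC as parent-peak depletion with new-peak appearance; non-cleavable PEG3 linker assayed for specificity.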

[3] = human, plasma, Plasma Stability (t 1/2)
[4] = mouse, plasma, Plasma Stability (t 1/2)
Method: Plasma was thawed in a 37° C. water bath. Residual clots were removed via centrifugation at 4000 rpm for 5 minutes. The pH of the plasma was adjusted to 7.4 if required. Test articles were diluted to 100 μM by diluting a 1 mM working solution (in DMSO) with 45% methanol in water. To 98 μL of plasma was added 2 μL of the 100 μM solution, resulting in 2 μM final concentration of the test article. Samples were incubated at 37° C. in a water bath. At the indicated time points (0, 10, 30, 60, 120 minutes) 100 μL of 4% H3PO4 was added followed by 800 μL of stop solution (200 ng/mL tolbutamide and 200 ng/mL labetalol in 100% acetonitrile). The samples were centrifuged and the plasma protein-free supernatant (100 μL) was subjected to LC-MS/MS analysis.

Sequence of human recombinant NEP (P08473 whole entry): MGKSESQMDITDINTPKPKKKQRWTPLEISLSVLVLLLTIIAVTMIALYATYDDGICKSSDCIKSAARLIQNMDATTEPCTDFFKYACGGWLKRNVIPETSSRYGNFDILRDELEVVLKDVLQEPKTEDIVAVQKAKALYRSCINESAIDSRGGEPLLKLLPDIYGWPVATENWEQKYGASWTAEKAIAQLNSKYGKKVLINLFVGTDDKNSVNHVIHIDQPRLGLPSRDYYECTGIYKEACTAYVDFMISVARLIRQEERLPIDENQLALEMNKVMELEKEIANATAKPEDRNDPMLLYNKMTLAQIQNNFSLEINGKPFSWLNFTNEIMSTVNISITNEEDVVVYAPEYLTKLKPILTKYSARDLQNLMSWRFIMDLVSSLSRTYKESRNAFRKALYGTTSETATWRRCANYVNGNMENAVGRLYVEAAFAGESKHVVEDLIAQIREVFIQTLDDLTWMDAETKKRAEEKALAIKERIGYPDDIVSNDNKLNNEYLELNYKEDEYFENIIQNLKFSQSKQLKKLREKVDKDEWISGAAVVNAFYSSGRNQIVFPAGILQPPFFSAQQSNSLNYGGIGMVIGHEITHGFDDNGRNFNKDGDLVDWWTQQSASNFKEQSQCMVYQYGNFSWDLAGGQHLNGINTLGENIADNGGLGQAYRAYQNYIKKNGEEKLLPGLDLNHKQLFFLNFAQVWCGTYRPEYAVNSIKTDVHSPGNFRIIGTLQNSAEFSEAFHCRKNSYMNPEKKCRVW

Question: With `Cc1ccc(CCCC(=O)NCCCC[C@H](NC(=O)COCCOCCOCCNC(=O)[C@@H]2CCCCn3cc(nn3)C[C@H](NC(=O)CC[C@H](NC(=O)c3ccc(NCc4cnc5nc(N)[nH]c(=O)c5n4)cc3)C(=O)O)C(=O)N[C@H](Cc3c[nH]cn3)C(=O)N[C@H](CO)C(=O)N[C@H](Cc3c[nH]cn3)C(=O)N[C@H]([C@H](C)O)C(=O)N[C@H](C)C(=O)N2)C(=O)N[C@@H](CCCCNC(=O)CN2CCN(CC(=O)O)CCN(CC(=O)O)CCN(CC(=O)O)CC2)C(N)=O)cc1` [compound #2809, Fol-hshta-PEG3-Lys(4-MPBA)-Lys(DOTA)] ({Pteroyl-γGlu}-[Pra][dH][dS][dH][dT][dA][Lys(N3)][AEEEA]K(Butanoyl(4-(4-MePh)))K(DOTA)-NH2; triazole 1-7) as the compound, how does the recovery [1] read?
Answer: 85.8%

Question: And the fraction unbound ([1]; human, plasma)?
Answer: 0.167

Question: And the recovery [2]?
Answer: 108%

Question: What about the fraction unbound ([2]; mouse, plasma) of the same compound?
Answer: 0.0791

Question: And the “NEP-mediated cleavage (site / susceptibility)” value (human recombinant NEP)?
Answer: unchanged

Question: What about the “in vitro Assay Data (NEP assay)” value (human recombinant NEP) of the same compound?
Answer: resistant to NEP

Question: What about the half-life [3] of the same compound?
Answer: > 4.82 h

Question: What about the half-life [4] of the same compound?
Answer: > 4.82 h
